Laboratory results taken from article doi:10.1101/318345v1.

Legend:
purified protein [1] = substrate: O=C(O)C[C@H](C(=O)O)[C@@H](O)C(=O)O; assay: purified protein; assay type: biochemical, Pseudomonas aeruginosa; conditions: 200 μM NADP+, 5 mM MgCl2, pH 7.5, 37 °C
purified protein [2] = substrate: NC(=O)c1ccc[n+]([C@@H]2O[C@H](COP(=O)(O)OP(=O)(O)OC[C@H]3O[C@@H](n4cnc5c(N)ncnc54)[C@H](OP(=O)(O)O)[C@@H]3O)[C@@H](O)[C@H]2O)c1; assay: purified protein; assay type: biochemical, Pseudomonas aeruginosa; conditions: 200 μM isocitrate, 5 mM MgCl2, pH 7.5, 37 °C

Row | Protein | Km (purified protein [1]) [µM] | kcat (purified protein [1]) [s⁻¹] | Km (purified protein [2]) [µM] | kcat (purified protein [2]) [s⁻¹]
1 | IDH (Pseudomonas aeruginosa PAO1) (protein) MSIRSKITYTFTDEAPALATYSLLPIVKAFAASAGIDVETSDISLAGRILANFADRLEADQRIEDDLARLAVLATSPDANIIKLPNISASVPQLKGAIAELQGLGYKVPDFPEDPQTDEEKEVRARYAKILGSAVNPVLREGNSDRRAPAAVKAYARKHPHSMGKWSMASRSHADYMRGGDFFSSEQSITMAKAGDVRIEFVGKDGKVEVKKQLSLQEGEVLDSMFMSCGKLRDFFEKTLQDCKETGVMWSLHVKATMMKISHPIVFGHAVSVYYKDVFDKWGQLFEELGVNPNNGISSVYDKIKSLPASQQEEILHDIHEVYSHRPEMAMVDSVKGITNLHIPSDVIVDASMPAMIRNSGQMWGKDGKQKDTKAVMPESTYARIYQEMINFCKTNGAFDPTTMGSVPNVGLMAQKAEEYGSHDKTFEMTADGTMRVVLADGSVLMQHKVETGDIWRACQTKDAPIRDWVKLAVTRARQSDTPAIFWLDPERAHDRELRKKVELYLKDHDLTGLDISIMGYNEAIRVSMERLIRGKDTISVTGNVLRDYLTDLFPIMELGTSAKMLSIVPLMAGGGMYETGAGGSAPKHVQQLVEENYLRWDSLGEFLALAVSLEETGIKTGNAKAKLLGKALDEATGKLLDNNKSPSRKVGDIDNRGSHFYLAMYWAQALAAQNEDAELKAHFAPLAKALTEQEATIVAELNAVQGKPAEIGGYYRSNPELTSKVMRPSATFNAAIDSLA | 17.7 | 183.7 |  | 
2 | ICD (Pseudomonas aeruginosa PAO1) (protein) MGYQKIQVPATGDKITVNADMSLSVPKNPIIPFIEGDGIGVDISPVMIKVVDAAVEKAYKGERKIAWMEVYAGEKATQVYDQDTWLPQETLDAVRDYVVSIKGPLTTPVGGGIRSLNVALRQQLDLYVCQRPVRWFEGVPSPVKKPGDVDMVIFRENSEDIYAGVEWKAGSPEAEKVIKFLTEEMGVKKIRFTENCGIGIKPVSQEGTKRLVRKALQYAVDNDRSSVTLVHKGNIMKFTEGAFKDWGYEVARDEFGAELLDGGPWMQFKNPKTGKNVVVKDVIADAMLQQILLRPAEYDVIATLNLNGDYLSDALAAEVGGIGIAPGANLSDSVAMFEATHGTAPKYAGQDKVNPGSLILSAEMMLRHMGWTEAADLIIKGTNGAIAAKTVTYDFERLMDGATLLSCSEFGDAMIAKM | 25.6 | 608.8 | 32.3 | 684.9
